Reference: patent US20230087128A1 (KEROS THERAPEUTICS, published 2023)

B1: ActRIIB (SEQ ID NO: 17)-Fc (Fc fusion, not shown: a dimerising Fc or GST)
chain: GRGEAETRECIYYNANWELERTNQSGLERCEGEQDKRLHCYASWRNSSGTIELVKKGCWLDDFNCYDRQECVATEENPQVYFCCCEGNFCNERFTHLPEAGGPEVTYEPPPTAPT
notes: Recombinant wild-type extracellular ActRIIB-Fc; also called ActRIIB-Fc
B7: BMP-9 (ligand, UniProt Q9UK05 320-429, looked up)
chain: SAGAGSHCQKTSLRVNFEDIGWDSWIIAPKEYEAYECKGGCFFPLADDVTPTKHAIVQTLVHLKFPTKVGKACCVPTKLSPISVLYKDDMGVPTLKYHYEGMSVAECGCR
notes: also called bone morphogenetic protein 9
B10: growth differentiation factor 11 (GDF11) (ligand, UniProt O95390 299-407, looked up)
chain: NLGLDCDEHSSESRCCRYPLTVDFEAFGWDWIIAPKRYKANYCSGQCEYMFMQKYPHTHLVQQANPRGSAGPCCTPTKMSPINMLYFNDKQQIIYGKIPGMVVDRCGCS

Key:
Test in all cases: SPR (Biacore 3000), Fc fusion captured, ligand in solution
Activin A = target: T1, Activin A (UniProt P08476 311-426)
T1 sequence (looked up): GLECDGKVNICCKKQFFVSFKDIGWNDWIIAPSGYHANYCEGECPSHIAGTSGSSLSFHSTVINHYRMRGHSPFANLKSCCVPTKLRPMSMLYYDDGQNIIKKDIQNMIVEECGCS
Text: (§1) The GE Biacore 3000 was used to measure the kinetics of the interactions between the ActRIIB-Fc variants and the ligands Activin A, Activin B, growth differentiation factor 11 (GDF11), and BMP-9. […] All other ActRIIB-Fc variants were expressed by transient expression in HEK293 cells and purified from the conditioned media using Protein-A Sepharose chromatography. Flow cells 1-4 were immobilized with anti-human/anti-mouse capture antibodies from GE using the amine coupling kit. The ActRII-Fc proteins were then captured on the chip in flow cells 2-4, with flow cell 1 being left empty as a reference cell to measure and subtract any nonspecific binding. HBS-EP+ buffer from GE Healthcare™ was used as a running buffer. Each ligand was run in a duplicate concentration series at 40 μl/min to avoid mass transport effects. All data was collected on a CM-5 chip except for GDF-11, which used CM-4. The data was analyzed using Scrubber2 by BioLogic™ Software to calculate the KD of each interaction (Table 4).

Activin B = target: T2, Activin B (UniProt P09529 293-407)
T2 sequence (looked up): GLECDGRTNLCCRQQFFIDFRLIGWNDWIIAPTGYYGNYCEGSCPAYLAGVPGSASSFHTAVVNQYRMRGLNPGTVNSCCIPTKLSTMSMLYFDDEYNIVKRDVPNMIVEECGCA
Text: as §1

BMP-9 = target: B7
Text: as §1

[1] = target: B10
Text: as §1

[2] = target: B1
Text: as §1

BMP-9, Q9UK05 = target: T3, BMP-9, Q9UK05; conditions: remark: other sources report otherwise
T3 chain: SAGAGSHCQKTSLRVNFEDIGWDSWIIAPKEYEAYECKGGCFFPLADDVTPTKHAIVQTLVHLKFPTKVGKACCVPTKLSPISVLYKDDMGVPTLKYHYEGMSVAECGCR

B1
Kd (Activin A): 0.063 nM | Kd (Activin B): 0.023 nM

B2: ActRIIB 2.05 variant (SEQ ID NO: 8)-Fc (Fc fusion, not shown: a dimerising Fc or GST)
chain: GRGEAETRECIYYNANWELERTNQSGLERCYGDKDKRLHCYASWRNSSGTIELVKKGCWLDDFNCYDRQECVAKKDSPEVYFCCCEGNFCNERFTHLPEAGGPEVTYEPPPTAPT
notes: Engineered variant of the human ActRIIB extracellular portion
binding result (BMP-9): no binding

B3: ActRIIB 2.11 variant (SEQ ID NO: 14)-Fc (Fc fusion, not shown: a dimerising Fc or GST)
chain: GRGEAETRECLYYNANWELERTNQSGVERCEGEKDKRLHCYASWRNSSGSLEIVKKGCWLDDFNCYDRTDCVATKENPQVYFCCCEGNMCNERFTHLPEAGGPEVTYEPPPTAPT
notes: Engineered variant of the human ActRIIB extracellular portion; recombinant protein
Kd (Activin A): 0.78 nM | Kd (BMP-9): 2.7 nM | Kd (Activin B): 0.37 nM | Kd [1]: 0.24 nM

B4: ActRIIB 2.12 variant (SEQ ID NO: 15)-Fc (Fc fusion, not shown: a dimerising Fc or GST)
chain: GRGEAETRECLYYNANWELERTNQSGVERCEGEKDKRLHCYASWRNSSGSLEIVKKGCWLDDFNCYDRDTCVATKENPQVYFCCCEGNMCNERFTHLPEAGGPEVTYEPPPTAPT
notes: as for B3
Kd (Activin A): 0.14 nM | Kd (BMP-9): 31 nM | Kd (Activin B): 0.16 nM | Kd [1]: 0.13 nM

B5: ActRIIB 2.10 variant (SEQ ID NO: 13)-Fc (Fc fusion, not shown: a dimerising Fc or GST)
chain: GRGEAETRECLYYNANWELERTNQSGVERCEGEKDKRLHCYASWRNSSGSLEIVKKGCWLDDFNCYDRDTCVATEENPQVYFCCCEGNMCNERFTHLPEAGGPEVTYEPPPTAPT
notes: Engineered variant of the human ActRIIB extracellular portion; also called ActRIIB variant 2.10-hFc
Kd (Activin A): 0.45 nM | Kd (BMP-9): 1.7 nM | Kd (Activin B): 0.28 nM

B6: ActRIIB 2.06 variant (SEQ ID NO: 9)-Fc (Fc fusion, not shown: a dimerising Fc or GST)
chain: GRGEAETRECIYYNANWELERTNQSGLERCEGEQDKRLHCFASWKNSSGTIELVKQGCWLDDFNCYDRQECVAKKDSPEVYFCCCEGNFCNERFTHLPEAGGPEVTYEPPPTAPT
notes: Engineered variant of the human ActRIIB extracellular portion; recombinant protein; also called ActRIIB variant 2.06-hFc
Kd (Activin A): 0.053 nM | Kd (BMP-9): 0.3 nM | Kd (Activin B): 0.1 nM | Kd [1]: 0.027 nM

B7
Kd [2]: 0.28 nM

B8: ActRIIB 2.09 variant (SEQ ID NO: 12)-Fc (Fc fusion, not shown: a dimerising Fc or GST)
chain: GRGEAETRECLYYNANWELERTNQSGVERCEGEKDKRLHCYASWRNSSGSLEIVKKGCWLDDFNCYDRTDCVATEENPQVYFCCCEGNMCNERFTHLPEAGGPEVTYEPPPTAPT
notes: Engineered variant of the human ActRIIB extracellular portion; also called ActRIIB variant 2.09-hFc
Kd (Activin A): 0.1 nM | Kd (BMP-9): 0.44 nM | Kd (Activin B): 0.16 nM

B9: ActRIIBΔ9 variant (SEQ ID NO: 3)-Fc (Fc fusion, not shown: a dimerising Fc or GST)
chain: GRGEAETRECIYYNANWELDRTNQSGLERCEGEQDKRLHCYASWRNSSGTIELVKKGCWLDDINCYDRQECVATKENPQVYFCCCEGNFCNERFTHLPEAGGPEVTYEPPPTAPT
notes: as for B2
Kd (Activin A): 390 nM | Kd (BMP-9): 28 nM | Kd (Activin B): 400 nM | Kd [1]: 530 nM

B10
Kd [2]: 0.12 nM

B11: ActRIIB/A variant (SEQ ID NO: 2)-Fc (Fc fusion, not shown: a dimerising Fc or GST)
chain: GRGEAETRECIFYNANWEKDRTNQSGLEPCYGDQDKRRHCFASWKNSSGTIELVKQGCWLDDINCYDRQECVAKKDSPEVYFCCCEGNFCNERFTHLPEAGGPEVTYEPPPTAPT
notes: Engineered variant of the human ActRIIB extracellular portion; expressed transiently in HEK293 and Protein A purified (SPR); conditioned media in the reporter assay; also called ActRIIB/A-Fc
binding result (Activin A): no binding | binding result (Activin B): no binding | binding result [1]: no binding | Kd (BMP-9, Q9UK05): 88 nM
